# From US20250019440A1 (Zymeworks, published 2025)
# T1: Cynomolgus monkey CLDN18 (cynomolgus monkey)
# T1 construct: On transfected HEK293-6E cells; also called Cyno CLDN18; cynomologus monkey CLDN18.2 ortholog
# T1 chain: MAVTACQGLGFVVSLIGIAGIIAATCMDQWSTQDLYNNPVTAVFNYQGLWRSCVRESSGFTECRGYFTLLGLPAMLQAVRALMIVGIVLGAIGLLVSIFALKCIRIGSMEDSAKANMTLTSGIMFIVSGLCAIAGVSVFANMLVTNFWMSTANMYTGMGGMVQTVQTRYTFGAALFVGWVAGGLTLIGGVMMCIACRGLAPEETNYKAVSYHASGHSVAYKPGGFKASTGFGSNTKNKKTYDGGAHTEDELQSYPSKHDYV
# T2: Mouse CLDN18 A2.1 (mouse, UniProt P56857 10-264)
# T2 construct: On transfected HEK293-6E cells; also called Mouse CLDN18 2.1; mouse CLDN18.2 ortholog
# T2 chain: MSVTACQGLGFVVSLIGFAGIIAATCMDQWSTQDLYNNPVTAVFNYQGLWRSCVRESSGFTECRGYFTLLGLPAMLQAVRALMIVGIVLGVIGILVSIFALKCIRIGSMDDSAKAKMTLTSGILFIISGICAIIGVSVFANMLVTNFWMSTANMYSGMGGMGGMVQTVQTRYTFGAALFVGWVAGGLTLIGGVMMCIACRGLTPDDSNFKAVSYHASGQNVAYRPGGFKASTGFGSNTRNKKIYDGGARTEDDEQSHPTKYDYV
# Assays:
# PD-L1 on cells = PD-L1 on cells (UniProt Q9NZQ7 19-290, limits assumed); assay: cell-based or functional assay
# Sequence of PD-L1 on cells (Q9NZQ7 19-290 limits assumed): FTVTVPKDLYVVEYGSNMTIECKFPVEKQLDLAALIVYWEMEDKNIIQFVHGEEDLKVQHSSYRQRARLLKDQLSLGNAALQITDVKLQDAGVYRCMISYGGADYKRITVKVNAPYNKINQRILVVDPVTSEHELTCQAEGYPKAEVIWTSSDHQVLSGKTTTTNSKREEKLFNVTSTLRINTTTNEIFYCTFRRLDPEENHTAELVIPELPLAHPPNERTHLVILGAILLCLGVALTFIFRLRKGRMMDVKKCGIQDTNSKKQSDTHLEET
# Human CLDN18.2 = biological target: T3, Human CLDN18.2 (human); assay: FACS on transfected HEK293-6E cells, 4 parameter logistic fit
# T3 construct: On transfected HEK293-6E cells; also called Claudin18.2
# Cynomolgus monkey CLDN18 = biological target: T1, Cynomolgus monkey CLDN18; assay: as above
# Mouse CLDN18 A2.1 = biological target: T2, Mouse CLDN18 A2.1; assay: as above
# Human CLDN18.1 = biological target: T4, Human CLDN18.1 (human, UniProt P56856 1-261); assay: FACS, Expi293F supernatants on transfected HEK293-6E cells
# T4 construct: On transfected HEK293-6E cells
# T4 sequence (P56856 whole entry): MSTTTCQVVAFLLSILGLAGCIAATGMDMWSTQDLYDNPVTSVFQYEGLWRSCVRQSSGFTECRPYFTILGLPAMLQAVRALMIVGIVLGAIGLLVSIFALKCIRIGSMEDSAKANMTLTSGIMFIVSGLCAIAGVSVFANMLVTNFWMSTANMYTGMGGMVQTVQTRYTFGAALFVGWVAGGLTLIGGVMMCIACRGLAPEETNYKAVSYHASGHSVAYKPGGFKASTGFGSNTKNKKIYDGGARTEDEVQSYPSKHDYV
Binder,"EC50 (read off the curve); hybrid PD-1/PD-L1 reporter gene assay, delta RLU, PD-1+ Jurkat T cells with SNU-620 cells, top right graph; composite signal of CD3 engagement and PD-1:PD-L1 blockade (PD-L1 on cells)","EC50 (read off the curve); hybrid PD-1/PD-L1 reporter gene assay, delta RLU, PD-1+ Jurkat T cells with SNU-620 cells, bottom graph; composite signal of CD3 engagement and PD-1:PD-L1 blockade (PD-L1 on cells)",Bmax (Human CLDN18.2),EC50 (Human CLDN18.2),Bmax (Cynomolgus monkey CLDN18),EC50 (Cynomolgus monkey CLDN18),Bmax (Mouse CLDN18 A2.1),EC50 (Mouse CLDN18 A2.1),binding result (Human CLDN18.1)
v39000 - A132L (other) heavy chain 1 (H1): EVQLVESGGGLVQPGGSLRLSCAASGVTFNYYGMSWIRQAPGKGLEWVASITSSGGRIYYPDSVKGRFTISRENTQKTLYLQMNSLRAEDTAVYYCTLDGRDGWVAYWGQGTLVTVSSASTKGPSVFPLAPSSKSTSGGTAALGCLVKDYFPEPVTVSWNSGALTSGVHTFPAVLQSSGLYSLSSVVTVPSSSLGTQTYICNVNHKPSNTKVDKKVEPKSCDKTHTCPPCPAPEAAGGPSVFLFPPKPKDTLMISRTPEVTCVVVSVSHEDPEVKFNWYVDGVEVHNAKTKPREEQYNSTYRVVSVLTVLHQDWLNGKEYKCKVSNKALPAPIEKTISKAKGQPREPQVYVYPPSRDELTKNQVSLTCLVKGFYPSDIAVEWESNGQPENNYKTTPPVLDSDGSFALVSKLTVDKSRWQQGNVFSCSVMHEALHNHYTQKSLSLSPGGGGGSGQVQLVESGGGLVQPGGSLRLSCSVSGIDLSSNPMIWVRQAPGKGLQYIGIIDTDGSTYYADWAKGRFTISKDSTTVYLQINSPRAEDTAVYYCARRLHGSSNGYYDDLWGQGTLVTVSSGGGGSGGGGSGGGGSGGGGSDGQMTQSPSSVSASVGDRVTITCQASQSIYSYLSWYQQKPGQRPKLLIYKASTLASGVPSRFSGSGSGTDFTLTISSVQPEDFATYYCQQGYTVTNVDKNTFGGGTKVEIK light chain (L1): NFMLTQPHSVSESPGKTVTISCKRNTGNIGSNYVNWYQQHEGSSPTTIIYRNDKRPDGVSDRFSGSIDRSSKSASLTISNLKTEDEADYFCQSYSSGFIFGGGTKLTVLGQPKAAPSVTLFPPSSEELQANKATLVCLISDFYPGAVTVAWKADSSPVKAGVETTTPSKQSNNKYAASSYLSLTPEQWKSHRSYSCQVTHEGSTVEKTVAPTECS heavy chain 2 (H2): NPPTFSPALLVVTEGDNATFTCSFSNTSESFVLNWYRMSPSNQTDKLAAFPEDRSQPGQDARFRVTQLPNGRDFHMSVVRARRNDSGTYLCGAISLAPKLQIKESLRAELRVTEGGGGSGQVQLVESGGGLVQPGGSLRLSCSVSGIDLSSNPMIWVRQAPGKGLQYIGIIDTDGSTYYADWAKGRFTISKDSTTVYLQINSPRAEDTAVYYCARRLHGSSNGYYDDLWGQGTLVTVSSGGGGSGGGGSGGGGSGGGGSDGQMTQSPSSVSASVGDRVTITCQASQSIYSYLSWYQQKPGQRPKLLIYKASTLASGVPSRFSGSGSGTDFTLTISSVQPEDFATYYCQQGYTVTNVDKNTFGGGTKVEIKAAEPKSSDKTHTCPPCPAPEAAGGPSVFLFPPKPKDTLMISRTPEVTCVVVSVSHEDPEVKFNWYVDGVEVHNAKTKPREEQYNSTYRVVSVLTVLHQDWLNGKEYKCKVSNKALPAPIEKTISKAKGQPREPQVYVLPPSRDELTKNQVSLLCLVKGFYPSDIAVEWESNGQPENNYLTWPPVLDSDGSFFLYSKLTVDKSRWQQGNVFSCSVMHEALHNHYTQKSLSLSPG,~0.04 nM,,,,,,,,
v39004 - A132L (other) heavy chain 1 (H1): EVQLVESGGGLVQPGGSLRLSCAASGVTFNYYGMSWIRQAPGKGLEWVASITSSGGRIYYPDSVKGRFTISRENTQKTLYLQMNSLRAEDTAVYYCTLDGRDGWVAYWGQGTLVTVSSASTKGPSVFPLAPSSKSTSGGTAALGCLVKDYFPEPVTVSWNSGALTSGVHTFPAVLQSSGLYSLSSVVTVPSSSLGTQTYICNVNHKPSNTKVDKKVEPKSCDKTHTCPPCPAPEAAGGPSVFLFPPKPKDTLMISRTPEVTCVVVSVSHEDPEVKFNWYVDGVEVHNAKTKPREEQYNSTYRVVSVLTVLHQDWLNGKEYKCKVSNKALPAPIEKTISKAKGQPREPQVYVYPPSRDELTKNQVSLTCLVKGFYPSDIAVEWESNGQPENNYKTTPPVLDSDGSFALVSKLTVDKSRWQQGNVFSCSVMHEALHNHYTQKSLSLSPGGGGGSGQVQLVESGGGLVQPGGSLRLSCSVSGIDLSSNPMIWVRQAPGKGLQYIGIIDTDGSTYYADWAKGRFTISKDSTTVYLQINSPRAEDTAVYYCARRLHGSSNGYYDDLWGQGTLVTVSSGGGGSGGGGSGGGGSGGGGSDGQMTQSPSSVSASVGDRVTITCQASQSIYSYLSWYQQKPGQRPKLLIYKASTLASGVPSRFSGSGSGTDFTLTISSVQPEDFATYYCQQGYTVTNVDKNTFGGGTKVEIK light chain (L1): NFMLTQPHSVSESPGKTVTISCKRNTGNIGSNYVNWYQQHEGSSPTTIIYRNDKRPDGVSDRFSGSIDRSSKSASLTISNLKTEDEADYFCQSYSSGFIFGGGTKLTVLGQPKAAPSVTLFPPSSEELQANKATLVCLISDFYPGAVTVAWKADSSPVKAGVETTTPSKQSNNKYAASSYLSLTPEQWKSHRSYSCQVTHEGSTVEKTVAPTECS heavy chain 2 (H2): QVQLVESGGGLVQPGGSLRLSCSVSGIDLSSNPMIWVRQAPGKGLQYIGIIDTDGSTYYADWAKGRFTISKDSTTVYLQINSPRAEDTAVYYCARRLHGSSNGYYDDLWGQGTLVTVSSGGGGSGGGGSGGGGSGGGGSDGQMTQSPSSVSASVGDRVTITCQASQSIYSYLSWYQQKPGQRPKLLIYKASTLASGVPSRFSGSGSGTDFTLTISSVQPEDFATYYCQQGYTVTNVDKNTFGGGTKVEIKAAEPKSSDKTHTCPPCPAPEAAGGPSVFLFPPKPKDTLMISRTPEVTCVVVSVSHEDPEVKFNWYVDGVEVHNAKTKPREEQYNSTYRVVSVLTVLHQDWLNGKEYKCKVSNKALPAPIEKTISKAKGQPREPQVYVLPPSRDELTKNQVSLLCLVKGFYPSDIAVEWESNGQPENNYLTWPPVLDSDGSFFLYSKLTVDKSRWQQGNVFSCSVMHEALHNHYTQKSLSLSPGGGGGSGDRPWNPPTFSPALLVVTEGDNATFTCSFSNTSESFVLNWYRMSPSNQTDKLAAFPEDRSQPGQDARFRVTQLPNGRDFHMSVVRARRNDSGTYLCGAISLAPKLQIKESLRAELRVTE,,~0.04 nM,,,,,,,
"v37407 (antibody, human IgG1, V domains shown, Humanized, recombinant human IgG1-based monoclonal antibody; also called H4-L4) VH: QVQLVESGGGLVQPGGSLRLSCSVSGIDLSSNPMIWVRQAPGKGLEYIGIIDTDGSTYYADWAKGRFTISKDSTTVYLQMNSLRAEDTAVYYCARRLHGSSNGYYDDLWGQGTLVTVSS VL: DGQMTQSPSSVSASVGDRVTITCQASQSIYSYLSWYQQKPGQRPKLLIYKASTLASGVPSRFSGSGSGTDFTLTISSVQPEDFATYYCQQGYTVTNVDKNTFGGGTKVEIK",,,2040,1.54 nM,1410,0.24 nM,1540,0.8 nM,no binding
"v37409 (antibody, human IgG1, V domains shown, Humanized, recombinant human IgG1-based monoclonal antibody; also called H2-L4) VH: QVQLVESGGGLVQPGGSLRLSCSVSGIDLSSNPMIWVRQAPGKGLEYIGIIDTDGSTYYADWAKGRFTISKDSSKNTVYLQMNSLRAEDTAVYYCARRLHGSSNGYYDDLWGQGTLVTVSS VL: DGQMTQSPSSVSASVGDRVTITCQASQSIYSYLSWYQQKPGQRPKLLIYKASTLASGVPSRFSGSGSGTDFTLTISSVQPEDFATYYCQQGYTVTNVDKNTFGGGTKVEIK",,,1960,1.22 nM,1500,0.35 nM,1530,0.89 nM,no binding

# The remaining lines, values ahead:
"EC50 (read off the curve); hybrid PD-1/PD-L1 reporter gene assay, delta RLU, PD-1+ Jurkat T cells with SNU-620 cells, top right graph; composite signal of CD3 engagement and PD-1:PD-L1 blockade (PD-L1 on cells)","EC50 (read off the curve); hybrid PD-1/PD-L1 reporter gene assay, delta RLU, PD-1+ Jurkat T cells with SNU-620 cells, bottom graph; composite signal of CD3 engagement and PD-1:PD-L1 blockade (PD-L1 on cells)",Bmax (Human CLDN18.2),EC50 (Human CLDN18.2),Bmax (Cynomolgus monkey CLDN18),EC50 (Cynomolgus monkey CLDN18),Bmax (Mouse CLDN18 A2.1),EC50 (Mouse CLDN18 A2.1),binding result (Human CLDN18.1),Binder
,,2170,1.05 nM,1730,0.37 nM,1790,1.03 nM,no binding,"v37411 (antibody, human IgG1, V domains shown, Humanized, recombinant human IgG1-based monoclonal antibody; also called H5-L4) VH: QVQLVESGGGLVQPGGSLRLSCSVSGIDLSSNPMIWVRQAPGKGLQYIGIIDTDGSTYYADWAKGRFTISKDSTTVYLQINSPRAEDTAVYYCARRLHGSSNGYYDDLWGQGTLVTVSS VL: DGQMTQSPSSVSASVGDRVTITCQASQSIYSYLSWYQQKPGQRPKLLIYKASTLASGVPSRFSGSGSGTDFTLTISSVQPEDFATYYCQQGYTVTNVDKNTFGGGTKVEIK"
,,1910,0.97 nM,1500,0.31 nM,1690,1.02 nM,no binding,"v37410 (antibody, human IgG1, V domains shown, Humanized, recombinant human IgG1-based monoclonal antibody; also called H3-L4) VH: QVQLVESGGGLVQPGGSLRLSCSVSGIDLSSNPMIWVRQAPGKGLQYIGIIDTDGSTYYADWAKGRFTISKDSSKNTVYLQMNSLRAEDTAVYYCARRLHGSSNGYYDDLWGQGTLVTVSS VL: DGQMTQSPSSVSASVGDRVTITCQASQSIYSYLSWYQQKPGQRPKLLIYKASTLASGVPSRFSGSGSGTDFTLTISSVQPEDFATYYCQQGYTVTNVDKNTFGGGTKVEIK"
,,2190,1.87 nM,1520,0.36 nM,1920,2.65 nM,no binding,"v37408 (antibody, human IgG1, V domains shown, Humanized, recombinant human IgG1-based monoclonal antibody; also called H4-L2) VH: QVQLVESGGGLVQPGGSLRLSCSVSGIDLSSNPMIWVRQAPGKGLEYIGIIDTDGSTYYADWAKGRFTISKDSTTVYLQMNSLRAEDTAVYYCARRLHGSSNGYYDDLWGQGTLVTVSS VL: DGQMTQSPSSVSASVGDRVTITCQASQSIYSYLSWYQQKPGQRPKLLIYKASTLASGVPSRFSGSGSGTDFTLTISSVQPEDAATYYCQQGYTVTNVDKNTFGGGTKVEVK"
